From PMC6093708, “Ligand discrimination and gating in cyclic nucleotide-gated ion channels from apo and partial agonist-bound cryo-EM structures” (eLife, 2018) come the findings set out here.

In assay [1] the target is SthK 1-420, cyclic nucleotide-gated potassium channel from Spirochaeta thermophila (Spirochaeta thermophila). Put plainly: negative stain electron microscopy; SthK in lipid nanodiscs (20 ug/mL), uranyl acetate stain, 2D classification.
For assay [2] the target is unchanged. The assay can be described thus: cryo-EM structure; SthK in POPG/MSP1E3 lipid nanodiscs; apo, with 2 mM cAMP or with 7 mM cGMP; 20 mM HEPES pH 8.0, 100 mM KCl; refined with C4 symmetry and without symmetry (C1).
For assay [3], the target named is T1, SthK (Winmispira thermophila, UniProt G0GA88).
T1 construct: gene Spith_0644; C-terminally truncated SthK 1-420; 19 extra N-terminal vector residues kept; expressed in E. coli C41(DE3); homotetramer in POPG/MSP1E3 nanodiscs or liposomes
Put plainly: single-channel recording in horizontal lipid bilayer. It is filed as biochemical. The following applies: very poor partial agonist; 7 mM cGMP; +100 mV; KCl, pH 7.0.

T1 sequence (G0GA88 entry or part of it): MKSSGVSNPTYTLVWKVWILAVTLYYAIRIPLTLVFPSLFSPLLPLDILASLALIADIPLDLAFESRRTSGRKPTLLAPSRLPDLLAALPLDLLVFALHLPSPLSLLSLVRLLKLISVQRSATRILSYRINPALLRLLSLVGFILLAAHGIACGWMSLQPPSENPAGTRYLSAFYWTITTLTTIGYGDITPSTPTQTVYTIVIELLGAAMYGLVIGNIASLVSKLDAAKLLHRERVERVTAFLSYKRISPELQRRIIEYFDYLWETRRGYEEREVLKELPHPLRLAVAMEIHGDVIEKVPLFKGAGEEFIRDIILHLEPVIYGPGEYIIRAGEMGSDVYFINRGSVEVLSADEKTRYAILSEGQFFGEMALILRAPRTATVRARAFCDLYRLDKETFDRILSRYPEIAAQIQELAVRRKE

Take “SthK 1-420, cyclic nucleotide-gated potassium channel from Spirochaeta thermophila (natural protein)”: the stoichiometry N in assay [1] and in assay [2] was 4 throughout. Take `Nc1nc2c(ncn2[C@@H]2O[C@@H]3COP(=O)(O)O[C@H]3[C@H]2O)c(=O)[nH]1` [cGMP]: in assay [3], the Po is listed as ~ 0.003.
